From patent publication US10920265B2, “Compounds and methods for detection of enzymes that remove methyl succinyl groups from epsilon-amino lysine moieties” (Enzo Life Sciences, Inc., priority 2011, dated 2021)

Substrate: CC(=O)N[C@@H](CCCCNC(=O)CCC(=O)O)C(=O)Nc1ccc2c(C)cc(=O)oc2c1
Experiment: SIRT5 desuccinylation/deacetylation of fluorogenic lysyl substrates, trypsin developer
Assay type: biochemical, human
Conditions: other: varied substrate: Lysyl, 1 mM NAD^+, 10 ng SIRT5, 20 min. at 37° C., pH 8.0
Method: FIG. 3 is graphs showing that SIRT5 catalyzes NAD^+-dependent desuccinylation of Ac-Lys(ε-succinyl)-AMC far more efficiently than NAD^+-dependent deacetylation of Ac-Arg-His-Lys-Lys(ε-acetyl)-AMC. Fifty μl reactions in Assay Buffer (50 mM Tris/HCl, pH 8.0, 137 mM NaCl, 2.7 mM KCl, 1 mM MgCl2, 1 mg/ml BSA) included 50 μM of either Ac-Lys(ε-succinyl)-AMC or Ac-Arg-His-Lys-Lys(ε-acetyl)-AMC, and, where indicated, 500 μM NAD^+ and 5 μg recombinant human SIRT5 (Enzo Life Sciences Cat. # BML-SE555). […] AMC fluorescence was read in a Cytofluor II plate-reading fluorimeter (Perseptive Biosystems) at wavelengths 360 nm (excitation)/460 nm (emission), Gain 54. Data represent the mean of two (No Enzyme) or three (+SIRT5) determinations and error bars the standard deviations. Panels A and B present the same data, but with the +SIRT5/+NAD^+/Ac-Lys(ε-succinyl)-AMC bar omitted from B to show the detail on the remaining bars. Statistically significant differences (Student's t-test) are indicated by asterisks as follows: *: p<0.02 vs. corresponding No Enzyme control; **: p<0.001 vs. corresponding −NAD^+ control; ***: p<3×10^−6 vs. both No Enzyme and −NAD^+ controls.
FIG. 4 is a graph showing that Ac-Lys(Succ.)-AMC enables SIRT5 assay at low enzyme concentrations. Fifty μl reactions in Assay Buffer (50 mM Tris/HCl, pH 8.0, 137 mM NaCl, 2.7 mM KCl, 1 mM MgCl2, 1 mg/ml BSA) included 2 or 10 μM Ac-Lys(ε-succinyl)-AMC, 500 μM NAD^+ and, where indicated, 5 ng recombinant human SIRT5 (Enzo Life Sciences Cat. # BML-SE555). […] AMC fluorescence was read in a Synergy 2 plate-reading fluorimeter (BioTek) at wavelengths 360 nm (excitation)/460 nm (emission), Gain 40. Data represent the mean of two (No Enzyme) or three (5 ng SIRT5) determinations and error bars the standard deviations. Statistically significant differences (Student's t-test) are indicated by asterisks as follows: *: p=0.002; **: p=0.009, each with respect to the corresponding “No SIRT5” samples.
FIG. 5 is graphs showing dependence of SIRT5 initial rate kinetics on the concentrations of Ac-Lys(Succ.)-AMC and Ac-Lys(Ac.)-AMC. Fifty μl desuccinylation or deacetylation reactions were performed as described earlier (FIG. 4), with the indicated concentrations of Ac-Lys(Succ.)-AMC or Ac-Lys(Ac.)-AMC and 1 mM NAD^+, for 20 min. at 37° C. Reactions with Ac-Lys(Succ.)-AMC contained 10 ng SIRT5 and those with Ac-Lys(Ac.)-AMC contained 5 SIRT5. […] AMC fluorescence was read in a Synergy 2 plate-reading fluorimeter (BioTek) at wavelengths 360 nm (excitation)/460 nm (emission), Gain 40. […] Fluorescence differences were converted to specific activities (pmol/min/μg) by measuring the fluorescence increase due to the addition a standard solution of AMC (5 μl of a […]). […]

B1: recombinant human SIRT5 (Homo sapiens) (protein)
chain: SSSMADFRKFFAKAKHIVIISGAGVSAESGVPTFRGAGGYWRKWQAQDLATPLAFAHNPSRVWEFYHYRREVMGSKEPNAGHRAIAECETRLGKQGRRVVVITQNIDELHRKAGTKNLLEIHGSLFKTRCTSCGVVAENYKSPICPALSGKGAPEPGTQDASIPVEKLPRCEEAGCGGLLRPHVVWFGENLDPAILEEVDRELAHCDLCLVVGTSSVVYPAAMFAPQVAARGVPVAEFNTETTPATNRFRFHFQGPCGTTLPEALACHENETVS
notes: purchased Enzo Life Sciences BML-SE555
What does the source list for B1?
Km: 108 µM; Vmax: 490 pmol/min/µg; kcat: 0.26 s⁻¹; kcat/Km: 2450 M⁻¹ s⁻¹
